Assay results reported in a protein production outcome set (Wang et al. 2014).

Test: label from the status in PepcDB records
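Further: failed if final PepcDB status was selected cloned or expressed and not failed if soluble or beyond.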

Sequence | protein production
PTSSTTAALVMGDALAVALLEARGFTAEDFALSHPGGALGRKLLLRVNDIMHTGDEIPHVGLQATLRDALLEITRKNLGMTAICDDDMNIIGIFTDGDLRRVFDTGVDMRDASIADVMTRGGIRIRPGTLAVDALNLMQSRHITCVLVADGDHLLGVVHMHDLLRA | not failed
PTSSTTATLVMGDALAVALLKARGFTAEDFALSHPGGALGRKLLLRVSDIMHTGDEIPHVNKHATLRDALLEITRKNLGMTVICDESMKIDGIFTDGDLRRVFDMGGDMRQLGIAEVMTPGGIRVRPGILAVDALNLMQSRHITSVLVADGDQLLGVLHMHDLLRA | failed
PVLTQTSEQAPSSAPRDVQARMLSSTTILVQWKEPEEPNGQIQGYRVYYTMDPTQHVNNWMKHNVADSQITTIGNLVPQKTYSVKVLAFTSIGDGPLSSDIQVITQTG | not failed
PVTQVMTPRPVVFRVDATMTINEFLDKHKDTPFSRPLVYSEQKDNIIGFVHRLELFKMQQSGSGQKQLGAVMRPIQVVLNNTALPKVFDQMMTHRLQLALVVDEYGTVLGLVTLEDIFEHLVGE | not failed
PVVVAVGAHREAAAVVDTAARLARDTASPLEVVHVRRTAVVEEQAADTETDEQAKAAVTAHLDRLGGMGVTATGQILTGVGDHAAAGRALARHAAEVGARTVAVGRSPRGPLAQFADGSFTSALTHAATCTVVLVDPNAEPR | failed
QAELMTLTIVKGAQGFGFTIADSPTGQRVKQILDIQGCPGLCEGDLIVEINQQNVQNLSHTEVVDILKDCPIGSETSLIIHRG | not failed
QDWLTFQKKHITNTRDVDCDNIMSTNLFHCKDKNTFIYSRPEPVKAICKGIIASKNVLTTSEFYLSDCNVTSRPCKYKLKKSTNKFCVTCENQAPVHFVGVGSC | not failed
QGHLVHMTVVSGSNVTLNISESLPENYKQLTWFYTFDQKIVEWDSRKSKYFESKFKGRVRLDPQSGALYISKVQKEDNSTYIMRVLKKTGNEQEWKIKLQVLDPVPKPVIKIEK | not failed
QHDSSRKLGLLQEMIGGGWWRYWAEQELFELAPALHDSLGLTGEYRRVPLEHLQGLLQPADADELGLRLRASLRSGQALAQDLCLRQPDSRGERRWLRIEGRPLGRGSALGLSGVLLDISEGRRQEER | failed
QHTEERELKKRLMNTARTVSEMTEVKEALARKKQTEAVRHAVEEIRMINEADYIVVMDMNHIRYTHPVSTSIGKKSEGADEEAAFAEHIYFSEAKGEIGTAVRAFYPVKDQDLNQIGVVLVGKTLPGIADILLHLKRD | not failed
QKDANASSEFYINKLGQTQELEDQQTYKLLAARVLIRENKVEQSAALLRELGELNDAQKLDRALIEARISAAKNANEVAQNQLRALDLNKLSPSQKSRYYETLAIVAENRKDMIEAVKARIEMDKNLTDVQRHQDNIDKTWALLRSANTGVINNASDEGNAALGGWLTLIKAYNDYIRQPVQLSQALQSWKNAYPNHAAATLFPKELLTLLNFQQTNVSQIGLLLPLSGDGQILGTTIQSGFNDAKGNSTIPVQVFDTSMNSVQDIIAQAKQAGIKTLVGPLLKQNLDVILADPAQIQGMDVLALNATPNSRAIPQLCYYGLSPEDEAESAANKMWNDGVRNPLVAMPQNDLGQRVGNAFNVRWQQLAGTDANIRYYNLPADVTYFVQENNSNTTALYAVASPTELAEMKGYLTNIVPNLAIYASSRASASATNTNTDFIAQMNGVQFSDIPFFKDTNSPQYQKLAKSTGGEYQLMRLYAMGADAWLLINQFNELRQVPGYRLSGLTGILSADTNCNVERDMTWYQYQDGAIVPVAN | failed
QKNPDSYNGAVRENYTWSQDYTDLEVRVPVPKHVVKGKQVSVALSSSSIRVAMLEENGERVLMEGKLTHKINTESSLWSLEPGKCVLVNLSKVGEYWWNAILEGEEPIDID | not failed
QLPSYRFNPNNHQSEQTLCVVCMCDFESRQLLRVLPCNHEFHAKCVDKWLKANRTCPICRAD | not failed
QLRDFSSIIQTCSGNIQRISQATAQIKNLMSQLGTKQDSSKLQENLQQLQHSTNQLAKETNELLKELGSLPLPLSTSEQRQQRLQKERLMNDFSAALNNFQAVQRRVSEKEKESIAR | not failed
QLREIVEKVSRVDDVHLALDILVKETCAALRTECCTIYLANEEMQRLELMATQGLIFEGDSIHINFNEGLVGLVKRSAEPLNLAEASKHPEFKFFPQLGEQVYHSFLATPIIHRKQVLGVLVIQQKTPRLFSEMEESFLVTLSAQLAVIIAHAQSLGHWQ | failed
QLSMLNPQKPMRRSEQHIARQVFSGLTRLDEEEQLQPDLAHAWQALSDTHWRFYLRPGVRFHNGNLLTTELIVQNLWQLRLLNLFAHIDRVDSPYPWAVDVHLQKPDTRLPLLLAEACAKILPAESDRNPDFDLMPVGTGPYKVVLND | failed
QLSSFETCAEKEESANTTESAIFEYHCEMSFDPNLLHNNGHNGYPNGTSAALRETGVIEKLLTSYGFIQCSERQARLFFHCSQYNGNLQDLKVGDDVEFEVSSDRRTGKPIAVKLVKIKQEILPEERMNGQVVCAVPHNLESKSPAAPGQSPTGSVCYERNGEVFYLTYTPEDVEGNVQLETGDKINFVIDNNKHTGAVSARNIMLLKKKQARCQGVVCAMKEAFGFIERGDVVKEIFFHYSEFKGDLETLQPGDDVEFTIKDRNGKEVATDVRLLPQGTVIFEDISIEHFEGTVTKVIPKVPSKNQNDPLPGRIKVDFVIPKELPFGDKDTKSKVTLLEGDHVRFNISTDRRDKLERATNIEVLSNTFQFTNEAREMGVIAAMRDGFGFIKCVDRDVRMFFHFSEILDGNQLHIADEVEFTVVPDMLSAQRNHAIRIKKLPKGTVSFHSHSDHRFLGTVEKEATFSNPKTTSPNKGKEKEAEDGIIAYDDCGVKLTIAFQAKDVEGSTSPQIGDKVEFSISDKQRPGQQVATCVRLLGRNSNSKRLLGYVATLKDNFGFIETANHDKEIFFHYSEFSGDVDSLELGDMVEYSLSKGKGNKVSAEKVNKTHSVNGITEEADPTIYSGKVIRPLRSVDPTQTEYQGMIEIVEEGDMKGEVYPFGIVGMANKGDCLQKGESVKFQLCVLGQNAQTMAYNITPLRRATVECVKDQFGFINYEVGDSKKLFFHVKEVQDGIELQAGDEVEFSVILNQRTGKCSACNVWRVCEGPKAVAAPRPDRLVNRLKNITLDDASAPRLMVLRQPRGPDNSMGFGAERKIRQAGVID | not failed
QNKKSGNPILPGFHADPEVLYSHQTKRYYIYPTSDGFPGWGGSYFKVFSSKNLKTWKEETVILEMGKNVSWANGNAWAPCIEEKKIDGKYKYFFYYSANPTTNKGKQIGVAVADSPTGPFTDLGKPIITSSPTGRGQQIDVDVFTDPVSGKSYLYWGNGYMAGAELNDDMLSIKEETTVVLTPKGGTLQTYAYREAPYVIYRKGIYYFFWSVDDTGSPNYHVVYGTAQSPLGPIEVAKEPIVLIQNPKEEIYGPAHNSILQVPGKDKWYIVYHRINKNHLNDGPGWHREVCIDRMEFNPDGTIKQVIPTP | not failed
QNNYLQSLEVQVMLDTLRVIHNPLQDYALVALMKSPMFGFDEDELARLSLQKAEDKVHENLYEKLVNAQKMASSQKGLIHTALAEKLKQFMDILASWRLYAKTHSLYDLIWKIYNDRFYYDYVGALPNGPARQANLYALALRADQFEKSNFKGLSRFIRMIDQVLEAQ | failed
QQMQAESGFVQHVGFKCDNCGIEPIQGVRWHCQDCPPEMSLDFCDSCSDCLHETDIHKEDHQLEPIYRS | not failed
QRRLSIFVDGNNMFYAQQKNNWFFDPRRVLDYFTCDPTVRLINAFWYTGLKDSQDQRGFRDALISLGYTVRTKILKEYYDDVSGRYSQKANLDIEIVVDMFNTVDQYDQVILFSGDGDFERAIELLRSKNTHITVVSTEGMIARELRNATDCYIDLNNLRAEIEKT | failed
QSGATAKVSVLYIGPMEAPADAAQRLGLPAGTQVLARRRLYFRNGTPVETASSYLPWDVVKDIPELFAENPGGGGIYARLEDHGHEFAEFVETLQARPASKAEASELALSPGAPVVHLIREARTTAGVVVEVCDTLMAADQFVFEYRIPAAD | failed
